T1: mouse NKG2D-Fc (mouse, UniProt O54709 90-232)
T1 construct: extracellular domain; also called Mouse NKG2D-Fc-biotin
T1 sequence (looked up): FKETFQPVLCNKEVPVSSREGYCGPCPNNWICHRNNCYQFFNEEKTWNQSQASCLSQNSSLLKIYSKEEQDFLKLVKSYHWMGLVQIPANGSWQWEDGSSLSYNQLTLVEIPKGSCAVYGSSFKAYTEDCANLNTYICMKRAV

T2: human NKG2D-Fc (human, UniProt P26718 73-216)
T2 construct: extracellular domain; also called recombinant human NKG2D-Fc; NKG2D-Fc-biotin
T2 sequence (looked up): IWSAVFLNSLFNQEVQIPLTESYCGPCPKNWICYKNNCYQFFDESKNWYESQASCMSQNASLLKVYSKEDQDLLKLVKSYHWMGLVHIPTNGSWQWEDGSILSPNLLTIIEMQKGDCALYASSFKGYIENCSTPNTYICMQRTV

T3: cynomolgus NKG2D-Fc (cynomolgus monkey, UniProt P61252 73-216)
T3 construct: extracellular domain
T3 sequence (looked up): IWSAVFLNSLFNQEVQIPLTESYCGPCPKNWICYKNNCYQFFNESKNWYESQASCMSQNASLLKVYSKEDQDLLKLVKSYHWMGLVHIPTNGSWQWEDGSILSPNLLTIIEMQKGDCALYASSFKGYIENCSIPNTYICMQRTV

T4: human CEACAM5 on cells (human, UniProt P06731 35-685)
T4 construct: tumour cell lines with endogenous CEACAM5, or B16F10 engineered to express hCEACAM5; also called CEACAM5 on MKN-45, HPAF-II, SK-CO-1, LoVo, BxPC-3, Kato-III, LS-174T, ZR-75-30; hCEACAM5-B16F10
T4 sequence: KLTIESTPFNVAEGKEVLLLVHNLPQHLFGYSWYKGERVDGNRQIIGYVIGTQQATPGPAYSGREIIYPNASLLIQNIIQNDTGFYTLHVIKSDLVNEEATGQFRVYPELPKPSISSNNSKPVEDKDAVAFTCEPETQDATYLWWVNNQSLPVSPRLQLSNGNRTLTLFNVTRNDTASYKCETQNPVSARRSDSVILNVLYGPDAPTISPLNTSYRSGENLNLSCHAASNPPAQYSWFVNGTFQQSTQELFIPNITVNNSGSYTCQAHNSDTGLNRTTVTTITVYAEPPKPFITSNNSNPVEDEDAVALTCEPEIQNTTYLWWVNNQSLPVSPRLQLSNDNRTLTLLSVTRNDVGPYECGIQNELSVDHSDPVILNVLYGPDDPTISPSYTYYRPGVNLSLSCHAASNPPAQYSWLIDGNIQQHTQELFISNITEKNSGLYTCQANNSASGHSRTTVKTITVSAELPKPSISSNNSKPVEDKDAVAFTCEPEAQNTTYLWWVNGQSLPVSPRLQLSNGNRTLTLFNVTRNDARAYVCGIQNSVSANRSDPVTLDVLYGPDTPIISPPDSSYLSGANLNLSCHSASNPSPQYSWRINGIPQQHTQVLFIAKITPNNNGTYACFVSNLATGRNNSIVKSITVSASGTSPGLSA


Tests used:
mouse NKG2D-Fc [1] = target: T1, mouse NKG2D-Fc; test: ELISA on plate-adsorbed recombinant mouse NKG2D-Fc, anti-human kappa-HRP, OD 450 nm
Text: (§1) The nucleic acid sequences of human, mouse or cynomolgus NKG2D ectodomains were fused with nucleic acid sequences encoding human IgG1 Fc domains and introduced into mammalian cells to be expressed. After purification, NKG2D-Fc fusion proteins were adsorbed to wells of microplates. After blocking the wells with bovine serum albumin to prevent non-specific binding, NKG2D-binding domains were titrated and added to the wells pre-adsorbed with NKG2D-Fc fusion proteins. Primary antibody binding was detected using a secondary antibody which was conjugated to horseradish peroxidase and specifically recognizes a human kappa light chain to avoid Fc cross-reactivity. 3,3′,5,5′-Tetramethylbenzidine (TMB), a substrate for horseradish peroxidase, was added to the wells to visualize the binding signal, whose absorbance was measured at 450 nm and corrected at […]. An NKG2D-binding domain clone, an isotype control or a positive control (comprising heavy chain and light chain variable domains selected from the group consisting of: SEQ ID NOs: 526-529, or anti-mouse NKG2D clones MI-6 and CX-5 available at eBioscience) was added to each well.

human NKG2D-Fc [2] = target: T2, human NKG2D-Fc; test: competition ELISA: human NKG2D-Fc-biotin binding to plate-adsorbed MICA-Fc is blocked
Method: Recombinant human MICA-Fc proteins were adsorbed to wells of a microplate, and the wells were blocked with bovine serum albumin to reduce non-specific binding. NKG2D-Fc-biotin was added to wells followed by NKG2D-binding domains. After incubation and washing, NKG2D-Fc-biotin that remained bound to MICA-Fc coated wells was detected using streptavidin-HRP and TMB substrate. Absorbance was measured at 450 nm and corrected at […]. After subtracting background, specific binding of NKG2D-binding domains to the NKG2D-Fc proteins was calculated from the percentage of NKG2D-Fc-biotin that was blocked from binding to the MICA-Fc coated wells.

cynomolgus NKG2D-Fc = target: T3, cynomolgus NKG2D-Fc; test: ELISA on plate-adsorbed recombinant cynomolgus NKG2D-Fc, anti-human kappa-HRP, OD 450 nm
Text: as §1

human NKG2D-Fc [3] = target: T2, human NKG2D-Fc; test: ELISA on plate-adsorbed recombinant human NKG2D-Fc, anti-human kappa-HRP, OD 450 nm
Text: as §1

mouse NKG2D-Fc [4] = target: T1, mouse NKG2D-Fc; test: competition ELISA: mouse NKG2D-Fc-biotin binding to plate-adsorbed Rae-1delta-Fc is blocked
Method: Recombinant mouse Rae-1delta-Fc (purchased from R&D Systems) was adsorbed to wells of a microplate, and the wells were blocked with bovine serum albumin to reduce non-specific binding. Mouse NKG2D-Fc-biotin was added to the wells followed by NKG2D-binding domains. After incubation and washing, NKG2D-Fc-biotin that remained bound to Rae-1delta-Fc coated wells was detected using streptavidin-HRP and TMB substrate. Absorbance was measured at 450 nm and corrected at […]. After subtracting background, specific binding of NKG2D-binding domains to the NKG2D-Fc proteins was calculated from the percentage of NKG2D-Fc-biotin that was blocked from binding to the Rae-1delta-Fc coated wells.

human NKG2D-Fc [5] = target: T2, human NKG2D-Fc; test: competition ELISA on plate-adsorbed human NKG2D-Fc; blocked ligand ULBP-6-His-biotin
Method: Recombinant human NKG2D-Fc proteins were adsorbed to wells of a microplate, and the wells were blocked with bovine serum albumin to reduce non-specific binding. A saturating concentration of ULBP-6-His-biotin was added to the wells, followed by addition of the NKG2D-binding domain clones. After a 2-hour incubation, wells were washed and ULBP-6-His-biotin that remained bound to the NKG2D-Fc coated wells was detected by streptavidin-conjugated to horseradish peroxidase and TMB substrate. Absorbance was measured at 450 nm and corrected at […]. After subtracting background, specific binding of NKG2D-binding domains to the NKG2D-Fc proteins was calculated from the percentage of ULBP-6-His-biotin that was blocked from binding to the NKG2D-Fc proteins in wells.

human CEACAM5 on cells [6] = target: T4, human CEACAM5 on cells; test: flow cytometry, BxPC-3 cells
human CEACAM5 on cells [7] = target: T4, human CEACAM5 on cells; test: flow cytometry, SK-CO-1 cells
human CEACAM5 on cells [8] = target: T4, human CEACAM5 on cells; test: flow cytometry, Kato-III cells
human CEACAM5 on cells [9] = target: T4, human CEACAM5 on cells; test: flow cytometry, MKN-45 cells
human CEACAM5 on cells [10] = target: T4, human CEACAM5 on cells; test: flow cytometry, LoVo cells
human CEACAM5 on cells [11] = target: T4, human CEACAM5 on cells; test: flow cytometry, MKN-45 cells; MKN-45 cells

Row | EC50 (read off the curve) (mouse NKG2D-Fc [1]) [nM] | IC50 (read off the curve) (human NKG2D-Fc [2]) [nM] | EC50 (read off the curve) (cynomolgus NKG2D-Fc) [nM] | EC50 (read off the curve) (human NKG2D-Fc [3]) [nM] | IC50 (read off the curve) (mouse NKG2D-Fc [4]) [nM] | IC50 (read off the curve) (human NKG2D-Fc [5]) [nM] | EC50 (human CEACAM5 on cells [6]) [nM] | Max FOB (human CEACAM5 on cells [6]) [fold over background] | EC50 (human CEACAM5 on cells [7]) [nM] | Max FOB (human CEACAM5 on cells [7]) [fold over background] | EC50 (human CEACAM5 on cells [8]) [nM] | Max FOB (human CEACAM5 on cells [8]) [fold over background] | Max FOB (human CEACAM5 on cells [9]) [fold over background] | EC50 (human CEACAM5 on cells [10]) [nM] | Max FOB (human CEACAM5 on cells [10]) [fold over background] | EC50 (human CEACAM5 on cells [11]) [nM] | Binder
1 | ~0.2 | ~20 | ~0.3 | ~0.4 | ~20 | ~3 | – | – | – | – | – | – | – | – | – | – | ADI-27743 (antibody, V domains shown, named as a single clone only on the drawing sheets) VH: QVQLQQWGAGLLKPSETLSLTCAVYGGSFSGYYWSWIRQPPGKGLEWIGEIDHSGSTNYNPSLKSRVTISVDTSKNQFSLKLSSVTAADTAVYYCARARGPWSFDPWGQGTLVTVSS VL: not shown
2 | – | – | – | – | – | – | 4.28 | 19 | 8.67 | 37 | 1.17 | 5 | 107 | 3.25 | 19 | < 9.05 | AB0509 (antibody, V domains shown, the scFv entries carry the stabilising cysteines, which the mAb may lack; also called mAb corresponding to AB0411) VH: QVQLVQSGGGLVQPGGSLRLSCAASGFTFTSYAMSWVRQAPGKGLEWVSAISGTGDSTFYADSVKGRFTFSRDNSKNTLYLQMNSLRAEDTAVYYCAKDLGWLQYGLFDYWGQGTLVTVSS VL: DIQLTQSPATLSVSPGERATLSCRASQSVSSSYLAWYQQKPGQAPRLLIYGASSRATGIPDRFSGSGSGTDFTLTISRLEPEDFAVYYCQQYNNWPLTFGGGTKVEIK

From patent US20240124607A1 (Merck Sharp & Dohme, published 2024)
